Assay: yeast display, Sf9 membrane polyspecificity reagent, FACS + sequencing; frameworks hold sequencing errors
Procedure, shortened: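 Nanobodies came from a synthetic yeast display library in Saccharomyces cerevisiae BJ5465, induced with galactose for 36–48 hours and stained for 1 hour at 4 °C with 10% biotinylated, detergent-solubilized Sf9 membrane reagent. Cells were enriched on streptavidin microbeads and then FACS-sorted, with low and high (top ~1%) gates set on anti-HA fluorescence for expression and streptavidin fluorescence for reagent binding. Each polyreactivity label reflects the gate a clone came from. Genes were amplified by colony PCR, sequenced by MiSeq 2 × 250 and filtered by CDR length.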

Row | Sequence | polyreactivity (PSR sort gate)
1 | QVQLVESGGGLVQAGGSLRLSCAASGRIFDDYAMGWYRQAPGKERELVAAIRSGGNTNYADSVKGRFTISRDNAKNTVYLQMNSLKPEDTADYYCAADTWFRAGYFVVYYDYWGQGTQVTVSS | low polyreactivity
2 | QDQLVASGGGLVQAGGSSRLSCAASGRTFWSNAMGWYRQAPGKERELVAVITSSGGRTYYADSVKGRFTISRDNAKNTVYLQMNSLKPEDTAVYYCNVVCSPSLGVRTKYGYWGQGTHVTVSS | high polyreactivity
3 | QVQLVESGGGLVQAGGSLRLSCAASGSIFIANAMGWYRQAPGKERELVAAITLNGGSTYYADSVKGRFTISRDNAKNTVYLQMNSLKPEDTAVYYCAADWVWVAPQYWIDEYDYWGQGTQVTVSS | low polyreactivity
4 | QVQLVESGRGKVQAGGSLRLSCAASGFTFRGNAMGWYRQAPGKERELVAAITSSGGRTYYADSVKGRFTISRDNAKNTVYLQMNSLKPEDTAVYYCAARYAYPSRYYYWGQGTQVTVSS | high polyreactivity
5 | QVQLVESGGGLVQAGGSLRLSCAASGFSVYPYAMGWYRQAPGKERELVAAISSSGGSTYYADSVKGRFTISRDNAKNTVYLQMNSLKPEDTAVYYCNKRPQQYRPGYDYWGQGTQVTVSS | high polyreactivity
6 | QVQLVESGGGLVQAGGSLRLSCAASGSTSSPNAMGRYRQAPGKEREFVAAISRSGGSTYYADSVKGRFTISRDNAKNTVYLQMNSLKPEETSVHYCAATVTVFYTRYYYWGQGTQVTVSS | high polyreactivity
7 | QVQLVESGGGLVQAGGSLRLSCAASGRIFGRNVMGWYRQAPGKERELVAAISWIGGSTSYADSVKGRFTISRDNAKNTVYLQMNSLKPEDTAVYYCAAKPYGYRHYWGYDYWGQGTQVTVSS | high polyreactivity
8 | QVQLVESGRRLVQAGGSLRLSCAASGSIFIPNVMGWYRQAPRKERELVASIRSNGGTNYADSVKGRFTISRDNAKNTVYLQMNSLKPEDTAVYNCAAKRWSYRHGFDYLGQGTQVTVSS | high polyreactivity
9 | QVQLVESGGGLVQAGGSLRLSCAASGSTFQIYVKGWYRQAPGKERELVAAISGSGVRTYYADSVKGRFTISRDTAKNTVYIQMHSLKPEDTAVYYCAVDYKSDWAYDYWGQGTQVTVSS | high polyreactivity
10 | QVQLVESGGGLVQAGGSLRLSCAASGITFYYNAMGWYRQAPGKERELVAAIRSAGSTYYADSVKGRFTISRDNAKNSVYVQMNSLKPEDTAVDYWGQGTQVTVSS | low polyreactivity
11 | QVHLVESGGGLVQAGGSLRLSCAASGFLFRTYAMGWYRPGPGKERELVDAISNDANTKYADSVKGRFTISRDNAKNTVYLQMNSLKPEDTAVYYGAAKAIYRGRYLKIVKVGYWGQGTQVTVSS | high polyreactivity
12 | QVQLVESGGGLVQAGGSLRVSCAASGRIFRYTSGWYRQAPAKERELVATINSCGRTYYADSVKGRFTISRDNAKNTVYLQRNCLKPEDTAVYFCAAPYQTKCNKYVHGSPIENDYWGQGTQVTVSS | low polyreactivity
13 | QVQLVDSGGGLVQAGGSLRLSCAASGSTFTYYAMGWYRPAPGKERELVASITTSGGDTNYADSVKGRFTISRDNAKKTVYLQRNSQKPEDTPLYYCNTTTDQHYGYCAAADADRKYDYWGQGTQVTVSS | low polyreactivity
14 | QVQLVESGGGLVQAGGTLRLSCAASGIIFYSNAMGWYRQAPGKEWELVAGISKSGGSTYYADSVKGRFTISRDNAKNNVYLHMNSLKPEDTAVYYCAVRGGGRYRSWGYDYWGQGTQVTVSS | high polyreactivity
15 | QVQLVESGGGLVQAGGSLRLSCAASGSTFFRYAMGWYRQAPGKEREFVAAITSSGGNTYYADSVKGRFTISRDNAKNTVYFQMNSLKPEDTAVYYCAAVWYSPYVKYNYWGQGTQVTVSS | low polyreactivity
16 | QVQLVESGGGLVQAGGSLRLSCAASGRTFRHNAMGWYRQAPGKERELVAAISSSGTNTHYADSVKGRFTISRDNAKNTVYLQMNSLKPEDTAVYYCAADRWGARRKQYHENGYWGQGTQVTVSS | high polyreactivity
17 | QVQLVESGGGLVQAGGSLRLSCADSGRTFYGNARGWYRQAPGKERELVAAISISGGSTYYADSVKGRFTISRDNAKNTVYLQMNSLKPEDTAVYYCNAQEYYYYPYVYDSDYWGQGTQVTVSS | low polyreactivity
18 | QVQLVESGGGLVQAGGSLRLSCAASGSTFRYNLMGWYRQAPGKERELVAAISAVGSTYYADSVKGRFTISRDNAKNTVYLQMNSLKAEDTAVYYCAASYDWRAYRRDFYYWLTGDYWGQGTQVTVSS | low polyreactivity
19 | QVQLVESGGGLVQAGGSLRLSCAASGFTFTRNTMGWYRQAPGKERELVAAITRGGSTNYADSVKGRFTITRDNAKNTVYLQMNSLKPEDTAVYYCAADAPFDRPYNYWGQGTQVTVSS | low polyreactivity
20 | QVQLVESGGGLVQAGGSLRLSCAASGSTFWYYAMGWYRQAPGKERELVAAITTGGDTTNYADSVKGRFTISRDNAKNTVYLQMNSLKPEDTAVYYCARDTGYDLIVLPDDSWGQGTQVTVSS | low polyreactivity
21 | QVQLVESGGGLVQAGGSLRLSCAASGITFVKYAMGWYRQAPGKERELVAAISGSGGSTSYADSVKGRFTISRDNAKNTVYLQMNSLKPEDTAVYYCNKAIVRYPKTRDYWGQGTQVTVSS | low polyreactivity
22 | QVQLVESVGGLVQAGGSLRLSCAASGLIFFGNTMGWYRQAPGKDRELVAAISKRGTTYYADSVKGRFKISRDNAKNTVYLQMNSLKPEDTAVYYCAAGGTFFHRLDYYYRSDYWGQGTQVTVSS | high polyreactivity

Row | Sequence | polyreactivity (PSR sort gate)
23 | QVQLVESGGGLVQAGGSLRLSCAASGSTFGLNAMGWYRQAPGKERELVAAISYSDTTTYYADSVKGRFTISRDNAKNTVYLQMNSLKPEDTAVYYCAAEGDYAFLYDYWGQGTQVTVSS | high polyreactivity
24 | QVQLVESGGGLVQAGGSLRLSCAASGSTFPYVMGWSRQAPGKERELVAAISQRTGSTYYADSVKGRFTSSRDNAKNTVYLQMNSLKPEDTAVYYCAKPGYLRPSRYDYWGQGTQVTVSS | high polyreactivity
25 | QVQLVESGGGLVQAGGSLRLSCAASGIIFYLYAMGWYRQAPGKERELVAAITLSGSTTYYADSVKGGFTISRDNAKNTVYLQMNSLKPEDTAVYYCNADTPVRSDYWGQGTQVTVSS | low polyreactivity
26 | QVQLVESGGGVVQAGGSLRLSCAASGSIFDPYAMGWYRHARGKERELVAALNSDGSTNYADSVKGRFTISRDNAKNTDYLQLNSLKPEDTAVYYCAARTFTLRGDDSWGQGSQVTVSS | low polyreactivity
27 | QVQLEESGGGLVQAGGSLRLSCAASGFNFFRNTMGGYRQAPGKERELVAGIRYSGGSTYYADSVKGRFTISRDNAKNTVYLQMNSLKPEDTAVYYCAARSHRRLMYYWGQGTQVTVSS | high polyreactivity
28 | QVQLVESGGGLVHAGGSLRLSCAASGSTFDRNAMGWARQAPGKDMELVDAISRSGGSTNYADSVKGRFTISRDNAKNTVYLQMNSLKPEDTAVYYCAAVRPLWYGQGWALYWFEYWGQGTQVTVSS | low polyreactivity
29 | QVQLVESGGGLVQAGGSLRLSCAASGSTFIGNAMGWYRQAPGKERELVAAISRTGGSTYADSVKGRFTISRDNAKNTVYLQMNSLKPEDTAVYYCAAKYYYIYYYWGQGTQVTVSS | high polyreactivity
30 | QVQLVESGGGLVQARGSLRLSCAASGSTFSVYAMGWYRQAPGKERELVAAITDVDNTYYADSVKGRFTISRDNAKNTVYLQRNSLKPEDTAVYYCDARYYQYYEYYHWGQGTQVTVSS | low polyreactivity
31 | QVQLVESVGVLVQAGGSLRLSCAASGSTFSSYAMGWYRPAPGKERELVAVISSRGTSTSYADSVKGRFTISRDNAKNTVYLQMNSLKQEDTAVYYCAASRFRWVQRYDYWGQGTQVTVSS | high polyreactivity
32 | QVQLVESGGGLVQAGGSLRLSCAASGSTFWYNAMGWYRQAPGKERELVAAITTRGDSTYYADSVKGRFTISRDNAKNTVYLQMNSLKPEDTAVYYCAADWAWYSYDWYYWYDYWGQGTQVTVSS | high polyreactivity
33 | QVQLVESGGGLVQAGGSLRLSCADSGSIFFPYAMGWYRQAPGKERYLVAAISSGTSTYYADSVKGRFTISRDNAKNTVYLQMNSLKPEDTAVFYCNARHRRGRFTHDYDYWGQGTQVTVSS | low polyreactivity
34 | QVQLVESGGGLVQAGGSLRLSCAASLIFANYAMGWYRQAPGKERELVAAISSVGRTYYADSVKGRFTISRDNAKNTVYLQMNSLKPEDTAVYYCAAESWFKYDYWGQGTQVTVSS | low polyreactivity
35 | QVQLVESGGGLVQAGGSLRLSCAASGLTFGAYAMGWYRQAPGKEREFVAAITYSGGSTNYADSVKGRFTISRDNAMNTVYLQMNSLKPEDTAVYYCNAGYYSPWAFYPYDYWGQGTQVTVSS | high polyreactivity
36 | QVQLVESGGGLLQAGGSLRLSCAASGFTISYNVMGWYRQAPGKERELVAAITYSGGSTYYADSVKGRFTISRDNAKNTVYLQMNSLKPEDTAVYYCAAENGMPMDYWGQGTQVTVSS | low polyreactivity
37 | QVQLVESGGGLVQAGGSLRLSCASSGGTFGSYAMGWYRHAPGKERELVAAIRSGDRTYYADSVKGRFTISRDNAKNTVYLQMNSLKPEDTAVYYCAAFYHHYYRYDYWGQGTQVTVSS | low polyreactivity
38 | QVQLVESGGGLVQAGGSLRLSCAASGRIFSVYTMGWYRQAPGKERELVATISSGGRTNYADSVKGRFTISRDNAKNTVYLQMNSLKPEDTAVYYCAAVPYGFVGYDDYWGQGTQVTVSS | low polyreactivity
39 | EEELVESGGGLVQAGGSLRLSCAASGSTFLVYAMGWYRQAPGKERELVAVITYSTVRTYYADSVKGRFTISRDNAKNTVYLQMNSLKPEDTAVYYCNADKEYAVLGQGMDYWGQGTQVSVSS | low polyreactivity
40 | QVQLVESGAGLVQAGGSLRLSCAASGSIFVQYAMGWSRQAPRNERELVAGISSIGGSTYYADSVKGRFTLSRDNSKNSVYLQMNSLKPEDTAVYYCAKRWRSSYRIGHDYWRQGTQVTVSS | low polyreactivity
41 | QVQLVESGGGLVQEGGSLRLSCAASGSTFVINAMGWYRQAPGKERELVADIDYRGGSTNYSDSVKGRFTISRDNAKNTVYLQMNSLKPEVTAVYYCNKRYVIRRRGYDYWGQGTQVTVSS | low polyreactivity
42 | QVQLVESGGGLVQAGGSLRLSCAASGFTFGYYAMGRYRQAPGKERELVATITSSGASTYADSVKGRFTISRDNAKNTVYLLMNSLKPEDTAVYYCAADRLPSYWSWYGYDYWGQGTQVTVSS | high polyreactivity
43 | QVQLVESGGGLVQAGGSLRLSCAASGFTFYGYAMGWYRQAPGKERELVATIRRSTGSTYYADSVKGRFTISRDNAKNTVYLQMNSLKPEDTAVYYCATRVWFPITSYDYWGQGTQVTVSS | low polyreactivity

Source: the nanobody polyreactivity screen of Harvey et al. (2022)
